Bridge positions count the residues as written; N and C are the ends. Square brackets hold non-standard residues; d marks the D form. AMBF3 = N,N-dimethylammoniomethyl-trifluoroborate
Biological target: T1, sstr3 (UniProt P32745 1-418, limits assumed)
T1 construct: whole, on cells; Membranes of transfected CHO-K1 cells; The species is printed only for sstr2 (human); also called somatostatin receptor subtype 3
Test: competitive filtration binding assay, displacement of [^125I]-Tyr-somatostatin-14 (0.2 nM) from CHO-K1 membranes
Description: Membranes from Chinese hamster ovary K1 cells transfected with sstr1, sstr2, sstr3, sstr5, and [¹²⁵I]-Tyr-somatostatin-14 were obtained from PerkinElmer. A standard filtration binding assay was performed in 96-well plates (MultiScreen; Millipore) to determine the binding affinities (inhibition constant, or Kᵢ) of AMBF₃-TATE against different receptor subtypes. Briefly, membranes ([…]) were incubated with the ¹²⁵I-labelled standard at a concentration of 0.05 nM for sstr2 or 0.2 nM for other subtypes. Increasing concentrations of AMBF₃-TATE were added to the wells in buffer (25 mM N-2-hydroxyethylpiperazine-N-2-ethanesulfonic acid, pH 7.4; 10 mM MgCl₂; 1 mM CaCl₂; and 0.5% bovine serum albumin). After incubation (37° C., 1 h), the wells were aspirated and washed 8 times with 50 mM ice-cold buffer (Tris-HCl, pH 7.4) over grade GF/B filters. The filters were removed and counted by a γ counter (Cobra II; Packard). Data were fitted to a 1-site competition model (GraphPad Prism 6.1 software) to calculate Kᵢ.

T1 sequence (P32745 whole entry): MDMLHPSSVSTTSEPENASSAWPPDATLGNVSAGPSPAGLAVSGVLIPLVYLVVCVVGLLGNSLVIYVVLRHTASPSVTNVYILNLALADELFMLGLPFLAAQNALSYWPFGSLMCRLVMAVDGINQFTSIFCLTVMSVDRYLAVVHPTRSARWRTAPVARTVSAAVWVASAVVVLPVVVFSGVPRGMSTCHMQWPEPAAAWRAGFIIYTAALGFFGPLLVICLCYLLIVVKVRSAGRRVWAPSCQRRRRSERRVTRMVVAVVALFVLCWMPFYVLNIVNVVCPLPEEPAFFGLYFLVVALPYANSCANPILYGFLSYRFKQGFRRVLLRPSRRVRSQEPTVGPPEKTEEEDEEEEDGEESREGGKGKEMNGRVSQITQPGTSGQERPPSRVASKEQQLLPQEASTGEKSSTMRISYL

B1: AMBF3-TATE (peptide)
peptide: {AMBF3-triazolylacetyl}-[dF]CY[dW]KTCT-OH
modifications: disulfide 2-7
notes: Free C-terminal acid (octreotate); also called ^19F-AMBF3-TATE; ^18F-AMBF3-TATE
Ki: 28.4 nM
